# Measured values as given in US20230293647A1 (AUTOLUS, published 2023).
# Target: SARS-CoV S1 spike protein domain (recombinant) (SARS-CoV, UniProt P59594 14-667)
# Test: ELISA on coated SARS-CoV S1
row,Binder,binding result
1,"dAb clone 9 fused to Fc (Fc fusion, also called clone C9 fused to Fc) QVQLQESGGGLVQAGDSLRLSCAASGRTSDTMTIGWFRQAPGKEREFVASINWSGSTTYYADSVNERFTISRDDAKNTVYLQMNSLKPEDTAVYYCAAKRGVWTIKSAAADFASWGQGTQVTVSS",no binding

# Target: T1, SARS-CoV-2 Spike protein, S1 subunit (recombinant) (SARS-CoV-2, UniProt P0DTC2 16-681)
# Test: ELISA, scFv-Fc supernatant on coated SARS-CoV-2 S1; cut-off 3x background
row,Binder,binding result
1,74648 (Fc fusion) scFv-Fc: EVQLVQSGGGVVQPGKSLRLSCAASGFAFSSYAMHWVRQAPGKGLEWVAVISYDGSNKYYADSVKGRFTISRDNSKNTLYLQMNSLRAEDTAVYYCARDRSYYLDYWGQGTLVTVSSETTLTQSPATLSLSPGERATLSCRASQSVRSNLAWYQQKPGQAPRPLIYDASTRATGIPDRFSGSGSGTDFTLTISRLEPEDFAVYYCQQRSNWPPTFGQGTKVEVK,no binding (tested: approximately 10 µg/ml)
2,74652 (Fc fusion) scFv-Fc: QVQLLESGAELVKPGASVKVSCKASGYTFTSYWIHWVKQRPGQGLEWIGEINPSNGRTNYNGNFESKATLTVDKSSNTAYMHLSSLTYEDSAVYHCTRLDYWGQGTTLTVSSELVMTQSPASLSVITGKKVTIRCISNTDIDDDLNWSQLKAGEPPKLLISEGNIFSPGVPSRFSSSGNGTDFVFTIENTLSEDVANNYCFQSDNMPFTFGSGTKLEIK,no binding (tested: approximately 10 µg/ml)
3,74655 (Fc fusion) scFv-Fc: QVQLVQSGAEVKKPGASVKVSCKASGYTFTTYGISWVRQAPGQGLEWMGWISAYNGNTNYAQKLQGRVTMTTDTSTSTAYMELRSLRSDDTAVYYCARDDLSDYGEWLGPDYWGQGTLVTVSSQPGLTQPPSASGTPGQRVTISCSGSRSNIGGNTVNWYQHVPGTAPKLLIYSNNQRPSGVPDRFSGSKSGTSASLAISGLRSEDEAEYYCATWEDSLSGYVFGPGTKVTVL,no binding (tested: approximately 10 µg/ml)
4,74653 (Fc fusion) scFv-Fc: QVQLQQPGAELVKPGASVKVSCKASGYTFTNYWIHWVKQRPGQGLEWIGEINPGNGRTNYNGNFMNKATLTVDKSSNTAYMQLSSLTSEDSAVYHCARLDYWGQGTTLTVSSELVMTQSPASLSVATGKKVTIRCISSTDIDDDMNWYQQKAGKPPKLLISEGNIFSPGVPSRFSSSGNGTDFVFTVENTLSEDVADNYCLQSDNMPFTFGSGTKLGIK,no binding (tested: approximately 10 µg/ml)
5,74651 (Fc fusion) scFv-Fc: EVQLEESGTVLARPGASVKMSCKASGYTFTTYRMHWIKQRPGQGLEWIGAIYPGNSDTTYNQKFKDKAKLTAVTSTSSAYMELSSLTNEDSAVYFCTREGIPQLLRTLDYWGQGTSVTVSSDILMTQSPSSLSASLGERVSLTCRASQEISGYLSWLQEKPDGTIKRLIYAASTLDSGVPKRFSGSRSGSDYSLTISSLESEDFADYYCLQYVSYPWTFGGGTKLEIK,no binding (tested: approximately 10 µg/ml)
6,74650 (Fc fusion) scFv-Fc: QVQLQQSGAEVKKPGSSVKVSCKASGGTFSSYTISWVRQAPGQGLEWMGGITPILGIANYAQKFQGRVTITTDESTSTAYMELSSLRSEDTAVYYCARDTVMGGMDVWGQGTTVTVSSSYELTQPPSVSVAPGKTARITCGGNNIGSKSVHWYQQKPGQAPVLVVYDDSDRPSGIPERFSGSNSGNTATLTISRVEAGDEADYYCQVWDSSSDYVFGTGTKVTVL,no binding (tested: approximately 10 µg/ml)
7,74662 (Fc fusion) scFv-Fc: EVQLVESGGGLVQPGGSLRLSCAASGFTFSGYPMHWVRQAPGKGLEWVAVISYDGSNKYYADSVKGRFTISRDNSKNTLYLQMNSLRAEDTAVYYCAKDGSPRTPSFDYWGQGTLVTVLEDIQMTQSPHSLSASVGDRVTITCRASQGISNYLAWYQQKPGKVPKLLIYAASTLQSGVPSRFSGSGSGTDFTLTISSLQPEDVGVYYCQQRFRTPVTFGQGTKLEIK,no binding (tested: approximately 10 µg/ml)
8,74649 (Fc fusion) scFv-Fc: QAQLVESGGALVQPGRSLRLSCAASGFTFRNYAMHWVRQAPATGLQWLAVITSDGRNKFYADSVKGRFTISREDSKNTLYLQMDSLRGEDTAVYYCVTQRDNSRDYFPHYFHDMDVWGQGTTVAVSSDVVLTQSPLSLPVTLGQPASISCRSSQSLVYSDGDTYLNWFQQRPGQSPRRLIYQVSNRDSGVPDRFSGSGSGTDFTLKISRVEAEDVGVYYCMQGSHWPPTFGQGTKVEIK,no binding (tested: approximately 10 µg/ml)
9,74667 (Fc fusion) scFv-Fc: QVQLVQSGAEVKKPGESLKISCKGSGYSFANHWIAWVRQMPGKGLEWMGIFNPDNSDTTYSPSFQGQVTFSADKSISIAYLHWSSLKASDTAIYYCARLALSDGWLHDFWGQGTLVTVSSEIVMTQSPLSLPVTLGQPASISCKSSQSLVDTNGNTYLIWFHQRPGQSPRRLIYQVSKRDSGVPDRFSGSGSGTDFTLKISRVEAEDVGVYFCMQGTYRPPTLGQGTKVEIK,no binding (tested: approximately 10 µg/ml)

# Target: T1, SARS-CoV-2 Spike protein, S1 subunit …
# Test: ELISA, coated SARS-CoV-2 S1; x axis Log Dilution factor, no concentration
row,Binder,binding result
1,"dAb clone 9 fused to Fc (Fc fusion, also called clone C9 fused to Fc) QVQLQESGGGLVQAGDSLRLSCAASGRTSDTMTIGWFRQAPGKEREFVASINWSGSTTYYADSVNERFTISRDDAKNTVYLQMNSLKPEDTAVYYCAAKRGVWTIKSAAADFASWGQGTQVTVSS",binds
